Experimental data from the supplement of paper PMC9732359.
± gives the uncertainty stated by the source.

Test: protein stability index of a GFP-peptide fusion (yeast GPS) (PSI 1-4); higher = more stable; sorted into four equal gates, so the index is relative within each strain
Procedure, shortened: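 Plasmids in a pooled yeast library fused tiled 17-residue yeast protein peptides downstream of GFP and also expressed Cherry. Mid-log cultures grown without leucine were sorted into four equal gates by GFP/Cherry fluorescence ratio. Each gate's plasmids were PCR-amplified and Illumina-sequenced, and reads were matched to strains by barcodes. The protein stability index is derived by multiplying each gate's read frequency by its gate number and summing the results.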

| Sequence | protein stability index (doa10∆) | protein stability index (pdr5∆) | protein stability index (san1∆) | protein stability index (ubr1∆) |
| --- | --- | --- | --- | --- |
| ILHVRAQYCYKNGLYQE [SRP72] | 2.86 ± 0.073 | 2.94 ± 0.095 | 3.1 ± 0.068 | 3.25 ± 0.057 |
| AQFVSNKQYHQANSNLT [NUT1] | 2.94 ± 0.081 | 3.21 ± 0.076 | 3 ± 0.1 | 3.23 ± 0.092 |
| TKIKPFIKVVNYNHLLP [RPL27A] | 2.49 ± 0.072 | 2.35 ± 0.094 | 2.77 ± 0.093 | 2.64 ± 0.11 |
| NTGIVSSTTGMSYVVRI [RPT3] | 3.17 ± 0.11 | 3.04 ± 0.19 | 3.31 ± 0.11 | 3.25 ± 0.09 |
| SHISASASPHLAPNMQL [SNF2] | 2.92 ± 0.041 | 2.83 ± 0.04 | 2.93 ± 0.033 | 3.1 ± 0.032 |
| LLVDIQKYNQIQKQIET [SMC2] | 1.92 ± 0.055 | 1.86 ± 0.05 | 2.2 ± 0.081 | 1.65 ± 0.04 |
| RAVLTPLITRHCYPRQL [RRP46] | 2.4 ± 0.048 | 2.18 ± 0.037 | 2.36 ± 0.052 | 2.39 ± 0.033 |
| IQNDIYLNDLMITKRIL [RPN12] | 2.34 ± 0.18 | 2.76 ± 0.14 | 2.72 ± 0.25 | 2.65 ± 0.12 |
| DDTKNQDSMSKGTGEES [YGR119C/NUP57] | 3.16 ± 0.077 | 3.14 ± 0.16 | 3.21 ± 0.082 | 3.42 ± 0.057 |
| FSPDGHIFQVEYALEAV [PRE6] | 3 ± 0.057 | 3.07 ± 0.054 | 3.1 ± 0.035 | 3.18 ± 0.037 |
| VSNNVLRRLEILVPDLY [ECM29] | 2.31 ± 0.1 | 1.84 ± 0.083 | 1.56 ± 0.11 | 1.65 ± 0.073 |
| VLQYSDWESDLHIHLNQ [YDL116W/NUP84] | 2.48 ± 0.073 | 2.61 ± 0.065 | 2.75 ± 0.066 | 3.04 ± 0.081 |
| TPNVREEKQKSYKFPRG [PUP1] | 3.29 ± 0.13 | 2.74 ± 0.12 | 3.13 ± 0.095 | – |
| NEPLSEIEIEGVMSLLQ [YAR002W/NUP60] | 3.31 ± 0.093 | 3.32 ± 0.14 | 3.22 ± 0.11 | 3.19 ± 0.094 |
| EEIRSQIDHFKSMLSKP [SWI3] | 1.65 ± 0.045 | 2.32 ± 0.065 | 2.67 ± 0.053 | 2.35 ± 0.04 |
| LAYAVLGIALIALGEDI [RPN1] | 1.73 ± 0.094 | 1.72 ± 0.094 | 1.98 ± 0.11 | 2.33 ± 0.06 |
| SRDLDISSSTQCLRFLK [POP6] | 2.46 ± 0.1 | 2.24 ± 0.05 | 2.7 ± 0.14 | 3.05 ± 0.061 |
| TISEKEQDILDLIAEQV [SSN2] | 3.08 ± 0.14 | 3.25 ± 0.15 | 3.05 ± 0.12 | 2.97 ± 0.13 |
| NTENVESVPTPANAEPQ [ITC1] | 3.11 ± 0.087 | 3 ± 0.086 | 2.96 ± 0.1 | 3.22 ± 0.12 |
| EFFVQVLTHESLHRQQQ [DLS1] | 2.99 ± 0.19 | 2.91 ± 0.14 | 2.81 ± 0.12 | 2.92 ± 0.13 |

| Sequence | protein stability index (doa10∆) | protein stability index (pdr5∆) | protein stability index (san1∆) | protein stability index (ubr1∆) |
| --- | --- | --- | --- | --- |
| FDKKSFFNGKALNNAIP [PRP8] | 2.06 ± 0.08 | 1.91 ± 0.051 | 1.98 ± 0.15 | 1.92 ± 0.052 |
| DDENNPSHYPHPYEYEI [RRP6] | 3.03 ± 0.064 | 2.89 ± 0.063 | 2.74 ± 0.054 | 2.89 ± 0.029 |
| YKLGKVKKVQLGKKGVP [RPS4A] | 2.85 ± 0.14 | 2.98 ± 0.16 | 3.19 ± 0.049 | 2.94 ± 0.11 |
| QLILSDVDPEFYLKYVD [RET1] | 3.25 ± 0.23 | 2.95 ± 0.15 | 2.72 ± 0.12 | 2.92 ± 0.12 |
| IFGSGFGSADDTYPYLT [FAS1] | 2.3 ± 0.075 | 1.74 ± 0.059 | 1.73 ± 0.09 | 2.1 ± 0.078 |
| TATASLGVIHKGNLLEG [RPN2] | 2.96 ± 0.16 | 1.84 ± 0.082 | 1.98 ± 0.16 | 2.72 ± 0.081 |
| AEDLTIAAKTHILRISF [SIN4] | 2.36 ± 0.12 | 3.02 ± 0.09 | 2.85 ± 0.085 | – |
| AAGAGAAAGAAMIDAGA [FAS2] | 2.84 ± 0.15 | 2.98 ± 0.12 | – | 2.99 ± 0.12 |
| KLSKILRTEYGWDSLAS [SNU114] | 3.17 ± 0.14 | 3.17 ± 0.2 | 3.1 ± 0.21 | 3.3 ± 0.17 |
| TSLQGTYEAIEITDAYC [YMR129W/POM152] | 2.63 ± 0.053 | 2.86 ± 0.059 | 2.74 ± 0.049 | 2.52 ± 0.038 |
| KKSGSLTFNSKNIQSKD [FAS2] | 3.2 ± 0.12 | 3.29 ± 0.13 | 3.26 ± 0.13 | 3.27 ± 0.075 |
| EIHPITFPPEVLARISP [RRP43] | 2.05 ± 0.041 | 2.57 ± 0.054 | 2.4 ± 0.049 | 1.94 ± 0.041 |
| QTEIKDIILGQNIKAPS [PRP8] | 2.6 ± 0.087 | 3.04 ± 0.074 | 2.58 ± 0.11 | 2.78 ± 0.07 |
| QFCGIKERNSLKKLKAM [BRR2] | 3 ± 0.23 | 3.25 ± 0.12 | 2.25 ± 0.27 | 2.99 ± 0.11 |
| GITAVHVKIRATGGTRT [RPS14B] | 1.47 ± 0.052 | 1.61 ± 0.041 | 1.57 ± 0.11 | 1.24 ± 0.047 |
| DRNLTEFDSTDTSLCIN [RRI1] | 2.98 ± 0.12 | 3 ± 0.12 | 2.59 ± 0.13 | 2.79 ± 0.067 |
| HSISEAENMLEELRGQQ [SMC4] | 3.27 ± 0.094 | 2.52 ± 0.18 | 3.35 ± 0.068 | 3.2 ± 0.079 |
| TTVYRYSAAKKIPDTYT [YAR002W/NUP60] | 1.34 ± 0.087 | 2.07 ± 0.094 | 1.42 ± 0.14 | 1.45 ± 0.077 |
| IGFTIKEYENHSGELMR [SMC1] | 2.53 ± 0.14 | 2.79 ± 0.059 | 2.06 ± 0.12 | 2.86 ± 0.14 |
| NTSSKRQKKKPTSAQKS [IRR1] | 2.71 ± 0.084 | 2.59 ± 0.08 | 2.5 ± 0.061 | 2.87 ± 0.07 |
